Assay results from the supplement of paper PMC12042874.
± gives the uncertainty stated by the source.

Experiment: amyloid nucleation score (Sup35N fusion, yeast selection) (log enrichment); library NNK2; higher = more nucleation; inactive = no reads after selection
Procedure, shortened: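 On medium lacking adenine and uracil, psi-negative yeast expressing peptides of 20 random codons fused to Sup35N were grown 7 days at 30°C after a 24-hour induction with 100 μM copper sulfate. Illumina sequencing of input and output plasmid inserts gave the reads, and sequences under 100 input reads were excluded. The nucleation score is the DiMSum log enrichment of output over input reads, centred on the mode score of non-aggregating sequences.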

In the case of ARKCDLFYTFFCTNIFSSVG, the amyloid nucleation score is reported as 4.798 ± 0.039.

ARLVYQLATRTCCFSQ gave an amyloid nucleation score of -0.032 ± 1.1.

With ARMRFKRRKCCNAIWVRSSV the amyloid nucleation score was 0.398 ± 0.3.

ARNSGWTATSSVYPLKTPAT gave an amyloid nucleation score of 1.37 ± 0.42.

Work on ARNYGRTWHTSEESWYFGEV yielded an amyloid nucleation score of 5.8 ± 0.081.

ARVRTMSVRFPVLSVVCYKL gave an amyloid nucleation score of 3.69 ± 0.057.

Substance ARYAVDTSITNECSLALYTS has an amyloid nucleation score of 1.23 ± 0.24.

ARYISCRKEFRYLESA showed an amyloid nucleation score of 0.069 ± 0.37.

In the case of ASAAYWASVHICPNLSKRKL, the amyloid nucleation score is reported as 0.328 ± 0.65.

ASAVV gave an amyloid nucleation score of 0.402 ± 0.26.

With ASDPIMTVSRPIPMHPLY the amyloid nucleation score was -0.172 ± 0.76.

Substance ASDVSRVGVGRKMIFSFVRL has an amyloid nucleation score of -0.031 ± 1.

For ASFCNVWGDNVWRYTLLRFK, the amyloid nucleation score was “inactive”.

ASGCLNLVCQNVCTSRSTNV showed an amyloid nucleation score of 8.954 ± 0.067.

With ASHMRSDSAL the amyloid nucleation score was “inactive”.

With ASLGPRFTDRTVQSHVNTRC the amyloid nucleation score was 0.147 ± 0.41.

Work on ASLSAFWSLTIVRVLPDKQV yielded an amyloid nucleation score of 0.722 ± 0.43.

ASLTASAGVVFFYTPTRRYN showed an amyloid nucleation score of 3.16 ± 0.14.

For ASMCIGRWIFGEYYSFNMFI, the amyloid nucleation score was 0.775 ± 0.38.

ASSMILL gave an amyloid nucleation score of -1.18 ± 0.64.

For ASVRENFYIGLCRKCYYHNP, the amyloid nucleation score was 1.59 ± 0.16.

ASYLCFPNNVVLSLHNHVFS showed an amyloid nucleation score of 4.834 ± 0.048.

ATGSYSMITLDIFQSNCSDA showed an amyloid nucleation score of 3.51 ± 0.053.

In the case of ATRGHIWDCSFGADYQCIPS, the amyloid nucleation score is reported as 5.97 ± 0.063.

AVDAVGSLMKRALRLRSMFG showed an amyloid nucleation score of 1.12 ± 0.44.

With AVFRLFASVPGFNRRPGLEQ the amyloid nucleation score was 0.314 ± 0.25.

Work on AVGYVMLMEMEALPISMWRG yielded an amyloid nucleation score of 7.027 ± 0.054.

Work on AVICVSSRIQFMWMLGGDGT yielded an amyloid nucleation score of 5.693 ± 0.045.

In the case of AVLLPNWSAYSGKNTSYVPV, the amyloid nucleation score is reported as 2.13 ± 0.1.

With AVPNLGSVPYVVDLMI the amyloid nucleation score was 0.907 ± 0.29.

AVRTLDNMGLYAWISAKVCR gave an amyloid nucleation score of -0.184 ± 0.79.

In the case of AVSTMGIVSIVF, the amyloid nucleation score is reported as “inactive”.

AVWAEEGMPLMLGACRRTWG gave an amyloid nucleation score of 1.25 ± 0.26.

Substance AWDDL has an amyloid nucleation score of 0.154 ± 0.45.

With AWRGFTSIGAYYAQFGLGVA the amyloid nucleation score was 0.431 ± 0.36.

In the case of AWVWFS, the amyloid nucleation score is reported as -0.845 ± 1.1.

AYCRGFYYIIALVSSPEQKR showed an amyloid nucleation score of 0.175 ± 0.34.

In the case of AYDIHTIREMFRSSSRLYGW, the amyloid nucleation score is reported as 5.854 ± 0.033.

Substance AYFRLWVRAWTLASGE has an amyloid nucleation score of 0.938 ± 0.2.

AYHTMGGWLRVAG gave an amyloid nucleation score of 0.005 ± 1.

With AYMSYRAGMDRLQCDVS the amyloid nucleation score was -0.947 ± 1.1.

Substance AYMVASMESMDACRVLRLPS has an amyloid nucleation score of 0.87 ± 0.21.

With AYMVEWEENHSESSVA the amyloid nucleation score was -0.383 ± 1.

AYYALCL showed an amyloid nucleation score of -0.92 ± 1.1.

Substance CAISM has an amyloid nucleation score of 4.271 ± 0.039.

CAPVCFFRGSLRCRSRLTWR showed an amyloid nucleation score of -0.221 ± 1.1.

With CAPYTVLGYGLGTQFHAGEN the amyloid nucleation score was 1.8 ± 0.1.

Substance CARMGASLWI has an amyloid nucleation score of 0.214 ± 0.65.

For CASWLVCMFRGMFRVLNTSG, the amyloid nucleation score was 2.82 ± 0.17.

With CAVVRGLTVKAVL the amyloid nucleation score was -0.64 ± 0.76.

Work on CCFRKWSSTAHRRFPCWREL yielded an amyloid nucleation score of 0.255 ± 0.54.

With CCIFWYCRADAINNCLARFD the amyloid nucleation score was 7.154 ± 0.041.

With CCKITDMAPNPVETWKYSKR the amyloid nucleation score was 0.786 ± 0.27.

For CCLTPYAIICLLARLNHTKV, the amyloid nucleation score was -0.273 ± 0.61.

Substance CCNIGHNVMNY has an amyloid nucleation score of 2.9 ± 0.11.

For CCYQVSYCIVSVIDSVEYGP, the amyloid nucleation score was 6.991 ± 0.033.

With CCYVHWILGAGDREGRLWRQ the amyloid nucleation score was 3.86 ± 0.13.

With CDGSGCTDFVVCLHK the amyloid nucleation score was -0.195 ± 0.31.

CDSRCRYLAEYRFI gave an amyloid nucleation score of 0.151 ± 0.27.

With CDTLTRRFVRCNVWFQCKR the amyloid nucleation score was 3.96 ± 0.056.

In the case of CDVLRY, the amyloid nucleation score is reported as -0.825 ± 0.48.

For CECVFFVQGVLRVGVLYDKF, the amyloid nucleation score was “inactive”.

Work on CEEAVSIGLKGYEHVEKSAP yielded an amyloid nucleation score of -0.313 ± 0.76.

With CEWHYRRGFMMIGVMWNAVF the amyloid nucleation score was 0.427 ± 0.36.

In the case of CFCPMLLLYIVRP, the amyloid nucleation score is reported as 7.483 ± 0.023.

CFKFRYRLGGW showed an amyloid nucleation score of 4.93 ± 0.05.

CFLCMQSLS gave an amyloid nucleation score of 1.34 ± 0.33.

CFVIGLSMNLGHAGHKVWMT showed an amyloid nucleation score of 4.75 ± 0.086.

In the case of CFVRTVFL, the amyloid nucleation score is reported as “inactive”.

Work on CGELY yielded an amyloid nucleation score of 0.506 ± 0.66.

In the case of CGFHYFFRSTGYMAVAIIIR, the amyloid nucleation score is reported as “inactive”.

Substance CGGAGRMLWGLADSNAALEA has an amyloid nucleation score of 0.163 ± 0.63.

For CGMKTRQYCTMSRYVGRYVR, the amyloid nucleation score was 0.231 ± 0.24.

CGRTDNWGNDRNASRRHGGL showed an amyloid nucleation score of 0.694 ± 0.24.

Work on CGTGARVCYCYGFKLSSARG yielded an amyloid nucleation score of 0.965 ± 0.6.

Substance CGYLSNRSDNRCDLLYACFR has an amyloid nucleation score of 0.571 ± 0.36.

Substance CHGSCSYETSVVCYMWSGKG has an amyloid nucleation score of 3.21 ± 0.14.

For CHHTAYPMANFWQWLKGAMS, the amyloid nucleation score was 0.069 ± 0.35.

CHLKFNANVKWLGSLGKLEY gave an amyloid nucleation score of 4.74 ± 0.069.

In the case of CHMDFERFRWLKFSLFCSLH, the amyloid nucleation score is reported as -0.562 ± 1.1.

Work on CHTTMPGIVCKLGTYARGEG yielded an amyloid nucleation score of 6.638 ± 0.066.

CIMRGREQDFWQSDY gave an amyloid nucleation score of 0.116 ± 0.23.

With CIQIAIYGWFTDTTIRG the amyloid nucleation score was 6.48 ± 0.03.

Work on CITLRYYMDVRLSLHMKRTW yielded an amyloid nucleation score of 0.988 ± 0.53.

With CIVAFEFLYWCRRIAFNPGG the amyloid nucleation score was -0.475 ± 0.31.
